Data on eleven sequences can be found in the DeepSol protein solubility set.

This data set can be described thus: soluble on expression in E. coli; label from the status in PepcDB or PDB records.
Turning to “MTSRRLEESMGAVQMGLVNMFKGFQSKVLPPLSPKVVTEEEVNRMLTPSEFLKEMSLTTEQRLAKTRLMCRPQIIELLDMGETTHQKFSGIDLDQALFQPFPSEIIFQNYTPCEVYEVPLILRNNDKIPRLVKVVEESSPYFKVISPKDIGHKVAPGVPSIFRILFTPEENKDYAHTLTCVTEREKFIVPIKARGARAILDFPDKLNFSTCPVKYSTQKILLVRNIGNKNAVFHIKTCRPFSIEPAIGTLNVGESMQLEVEFEPQSVGDHSGRLIVCYDTGEKVFVSLYGAAIDMNIRLDKNSLTIEKTYISMANQRTITIHNRSNIIAHFLWKVFATQQEEDREKYRACDDLIKEEKDETDEFFEECITDPLLREHLSVLSRTFANQRRLVQGDSKLFFNNVFTVEPLEGDVWPNSSAEITVYFNPLEAKLYQQTIYCDILGREIRLPLRIKGEGMGPKIHFNFELLDIGKVFTGSAHCYEAILYNKGSIDALFNMTPPTSALGACFVFSPKEGIIEPSGVQAIQISFSSIILGNFEEEFLVNVNGSPEPVKLTIRGCVIGPTFHFNVPALHFGDVSFGFPHTLICSLNNTSLIPMTYKLRIPGDGLGHKSISYCEQHVDYKRPSWTKEEISSMKPKEFTISPDCGTIRPQGFAAIRVTLCSNTVQKYELALVVDVEGIGEEVLALLITARYCSPACSSPESPPSLQ”, the “soluble on expression in E. coli” value is listed as “soluble”.

For the sequence “MTGVDPTIVKIHEIQGTGTASPLVNNVVTIEAIVVGDFQDGDGDISRNLRGFYVQEEDADVDGNVATSEGIFIFENGNFITDVNVGDKVQITGTVDEFFGETQIDTITNITVISSGNTLPTAANITLPTAGTTESQGGTPQPDLEAFEGMLVKFTDTLTITEMFNLDRFNEIKLSQGGRPQQFTQFNDANVAGYGAYREEIGARTITYDDGLSVQNAEISNLDGFGSSFSTASDIRMGDTINNLTGVLSYQWAGNASSGATWRVRSAVDGTNQFTKVNDRPVTPENVGGSLKVTGFNVLLEHHHHHH”, the “soluble on expression in E. coli” value is “soluble”.

Consider “MGSLVHVKEATVITPSDQTPSSVLSLSALDSQLFLRFTIEYLLVYPPVSDPEYSLSGRLKSALSRALVPYFPFSGRVREKPDGGGGLEVNCRGQGALFLEAVSDILTCLDFQKPPRHVTSWRKLLSLHVIDVLAGAPPLVVQLTWLRDGGAALAVGVNHCVSDGIGSAEFLTLFAELSKDSLSQTELKRKHLWDRQLLMPSPIRDSLSHPEFNRVPDLCGFVNRFNAERLVPTSVVFERQKLNELKKLASRLGEFNSKHTSFEVLSAHVWRSWARSLNLPSNQVLKLLFSVNIRDRVKPSLPSGFYGNAFVVGCAQTTVKDLTEKGLSYATMLVKQAKERVGDEYVRSVVEAVSKERASPDSVGVLILSQWSRLGLEKLDFGLGKPVHVGSVCCDRYCLLLPIPEQNDAVKVMVAVPSSSVDTYENLVTSPNA”, for which the “soluble on expression in E. coli” value was “not soluble”.

Take “MNTEEQPVTASLVAEAQRLDFLPTYFGPRLMMRGEALVYAWMRRLCERYNGAYWHYYALSDGGFYMAPDLAGRLEIEVNGNGFRGELSADAAGIVATLFALGQLAAEIADTDAADALIDRYHFLRGFAAGHPEAAAIYRAID”: the “soluble on expression in E. coli” value is “soluble”.

Regarding “MSLNQPDLFSSTSGTVGGLAVQSILEGFKSHYARDQETELSLEEYLSLAKQDPMAYASPAERMLAAIGEPELIDTRNDPRLSRLFSNRLVRRYPAFKEFYGLEDVIDQIVAFFKHAAQGLEERKQILYLLGPVGGGKSSIAERLKVLMEAYPIYALKGSPVNESPLGLFHPDRFGDTLEQEYGIARRYLCGIMSPWAVKRLREFDGDISQFRVVRLNPSVLRQVAIAKTEPGDENNQDISSLVGKVDIRKLERYAQDDPDAYSYSGGLCLANQGLLEFVEMFKAPIKMLHPLLTATQEGNFKGTEGFSAIPFNGMILAHSNESEWQTFRNNKHNEAFLDRIYIVKVPYCLQVSEEVCIYEKLLRHSSLAQAPCAPGTLDMMAQFSVLTRLKEPENSSIYSKLRVYDGESLKDVDPKAKALQEYKDYAGTDEGMTGVSTRFAYKILSSVFNYDQTEVAANPVHLMYVLEQRIAREDFPEETRRRYLEFIKGYLAPRYAEFIGKEIQTAYLESYSEYGQNIFDRYVTFADCWIQDEEFRDPETGESFDRSALNDELEKIEKPAGIANPKDFRNEIVNFVLRARANNAGRNPNWTSYEKLREVIEKKMFSNTEDLLPVISFNAKASAEDRSKHQSFVDRMVDKGYTEKQVRLLCEWYLRVRKSSEGHHHHHH”, the “soluble on expression in E. coli” value was “soluble”.

Take “MAKGYWIAQVDVRDSERYKDYVSTAKPAFERFGANFLARGGSVTELEGTARARNVVIEFPSVQHAIDCYNSPEYQAAAKIRQEVADAEMMIVEGI”: the “soluble on expression in E. coli” value is listed as “soluble”.

As for “MGSDKIHHHHHHMAKRKVPPEFVVERDDYKCIRCLACVRVCSYGANFYDENANRVYTENTKCVGCHFCEAICPTEAITVRKNDFDIRPLAHWTPEHLIGIMKQAETGGVLLTSMGNDRPYFSYFDRIVLNASQVTNPSIDPLREPMEIRTYIGRKEEKLEIEEDEDGTVKLKTEIAPQLKLEVPVMFTAMSYGSISLNAILSLARAARTVGTFFNTGEGGLPKELREFKDNMIVQVASGRFGVSADYLNAGSAVEIKIGQGAKPGIGGHLPGEKVTEPISETRMIPVGTDALSPAPHHDIYSIEDLRQLIYAIKEATRYEKPVGVKIAAVHNVAPIAAGAVRAGADYIVIDGIRGGTGAAPKITRDHVGIPIEFAVAVVDQRLREEGIRHMASIVVAGGIRNSADVIKAIALGADAVYIGTAALISLGCHLCQTCYLGKCNWGIATQDPKLTKRLNPEIGARRAANLLRAWAHEIKEILGGMGINAIESLRGNREVLRGVGLHEYELKLLGIKPAGEAW”, the “soluble on expression in E. coli” value is “not soluble”.

With “TTHKFEHPLNEKTRIYLRVESLLRQAHLASGFADNHQYQLFFRALFDMVEIFEQIQLKSELAKDLEKQRLSYRHWLNVEGVDQEALNSLLNEIDVVHSQLMGAERFGQALKEDRFLSSIRQRFNLPGGSCCFDLPALHYWLHLPIERKKHDANQWQKSLKPLSDALTLWLKLARETGHFKAQIARAGFFQSDADEANILRLHIPMKYGVYPMISGHKNRFAIKFMAFENGQACSQDVEFELAVC”, the “soluble on expression in E. coli” value is listed as “soluble”.

Consider “MTESIDGNPWRILELVAENEYHLEQDNNVDQLEQFSVIPGFQEELVEFAKKKLLDSIEVQQFLVERDIEFQEKNIASLIDELSDNQDDESNSKEIHLELKSSKNKYEGLRKKIASFKGRQQKAVGFLNSGLEEIRILTSPNDKFCYKVKNASWRCSVDNSIDLQKIKLICEKLIGLEKKMEVTFWTSEIMKLLENLDQRHYAVAFGIIIGMATWEYENSEKYHLLALIHLSIGRDETKTDVLLYWENWENESIEQSIVSLRILMIFYMKISIDDLECRENFEFRICQVIVFILEHKEFESSHLTMITELLGSIEQRFGNFTEMCDIMFTHFEAKAQMFDSYEAKMLVFMRNEHLSLLQTQHIDQCMDTLNILILLYLKIKIDKWTYREIIEQRISQFIICILEHTEFQSIHLTLIIQHLESIEQQFGCFSGKFDNMFKIFELKLQILDRPEQERVSKWIKSLSLRSSISEFSSEHSHSTVTVIEHSEKTYELEQNVRIDLEETLKLEKRIEEVSIEESKKKQEKLELKQREEEEARIKEEEEKQRKILEEEARKKQEEEEARLKAEEELKIYEEEKRKKELEEERKKKEELEIKRKAEEEKKKKALEEEKKRKIAEEKARQKQEKERKKQANKCTFLQNFTFIRHQHPSQTYNERVLDGKVVGLYFSAHWCPPSRDFTPVLAQFYSQVEDNFEILFVSSDNNTQEMNFYLQNFHGDWFHLPLNLCNSMKHRNTKNHIPALIIMKPDGTVITDDGRNLVSQWINDPKALVNHWKAMLN”, for which the “soluble on expression in E. coli” value is “not soluble”.

For the sequence “MSLAMKKHLFTLTLSSVLAIPAVSHAEFKGGFADIGIHYLDWTSRTTEKSSTKSHKDDFGYLELEGGANFSWGEMYGFFDWENFYNDRHDKPGSEQRYTFKNTNRIYLGDTGFNLYLHAYGTYGSANRVNFHDDMFLYGIGYNFTGSGWWFKPFFAKRYTDQTYYTGDNGYVAGWVAGYSFMLGSEKFTLTNWNEYEFDRDATYAAGNGGKEGLNGAVALWWNATSHITTGIQYRYADDKLGEDFYQDAIIYSIKFNFEGHHHHHH”, the “soluble on expression in E. coli” value is “not soluble”.

Consider “MKIYVSRSRLKSNRRRLINETDVERLFSRNGFQIIHPQELTIKEQINLFRHAQVIAGPLGSAMYNCVFQTKPTKKLLLTYEKFIKMSDLLINTSTNGLLYYFAGTEHKQNKSPSNTEWLEHHHHHH”, for which the “soluble on expression in E. coli” value is reported as “soluble”.
